Tests used:
[1] = target: human protease-activated receptor 2 (human) (UniProt P55085); test: cell-based or functional assay
[2] = target: T1, human protease-activated receptor 4 (human) (UniProt Q96RI0); test: cell-based or functional assay
T1 sequence (looked up): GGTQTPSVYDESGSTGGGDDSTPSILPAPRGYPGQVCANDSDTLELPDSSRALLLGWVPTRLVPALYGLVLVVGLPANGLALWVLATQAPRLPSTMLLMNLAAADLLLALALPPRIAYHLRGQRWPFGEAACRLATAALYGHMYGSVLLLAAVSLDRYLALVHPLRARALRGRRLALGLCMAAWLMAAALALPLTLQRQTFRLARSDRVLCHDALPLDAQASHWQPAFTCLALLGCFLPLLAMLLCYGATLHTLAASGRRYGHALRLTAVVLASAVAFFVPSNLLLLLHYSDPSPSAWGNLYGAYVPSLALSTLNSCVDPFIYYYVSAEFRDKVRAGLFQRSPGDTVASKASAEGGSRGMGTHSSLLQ

Sequence of recombinant human cathepsin S (P25774 115-331): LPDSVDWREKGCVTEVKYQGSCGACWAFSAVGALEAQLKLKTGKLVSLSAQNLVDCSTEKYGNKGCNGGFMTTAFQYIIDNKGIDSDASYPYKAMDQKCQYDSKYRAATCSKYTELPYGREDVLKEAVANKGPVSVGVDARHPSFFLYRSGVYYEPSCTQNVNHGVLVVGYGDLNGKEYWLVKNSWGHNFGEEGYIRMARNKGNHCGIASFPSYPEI

- calcium flux (ratiometric Fura-2 imaging, transfected HeLa cells) [1]: 30 nM
- calcium flux (ratiometric Fura-2 imaging, transfected HeLa cells) [2]: 30 nM
Substance: recombinant human cathepsin S (from UniProt P25774 115-331) (enzyme)
